{"source": "patent US20240261333A1", "about": "“NOVEL TARGETS FOR ENHANCING ANTI-TUMOR IMMUNITY” (THE BROAD INSTITUTE, INC., priority 2021, published 2024)", "experiment_in_all_cases": "IgG control IP from lysate of cells overexpressing N-FLAG B3GNT2, then mass spectrometry", "key": {"CASC3 (human)": {"target": "CASC3 (human) (UniProt O15234)", "sequence (O15234 whole entry)": "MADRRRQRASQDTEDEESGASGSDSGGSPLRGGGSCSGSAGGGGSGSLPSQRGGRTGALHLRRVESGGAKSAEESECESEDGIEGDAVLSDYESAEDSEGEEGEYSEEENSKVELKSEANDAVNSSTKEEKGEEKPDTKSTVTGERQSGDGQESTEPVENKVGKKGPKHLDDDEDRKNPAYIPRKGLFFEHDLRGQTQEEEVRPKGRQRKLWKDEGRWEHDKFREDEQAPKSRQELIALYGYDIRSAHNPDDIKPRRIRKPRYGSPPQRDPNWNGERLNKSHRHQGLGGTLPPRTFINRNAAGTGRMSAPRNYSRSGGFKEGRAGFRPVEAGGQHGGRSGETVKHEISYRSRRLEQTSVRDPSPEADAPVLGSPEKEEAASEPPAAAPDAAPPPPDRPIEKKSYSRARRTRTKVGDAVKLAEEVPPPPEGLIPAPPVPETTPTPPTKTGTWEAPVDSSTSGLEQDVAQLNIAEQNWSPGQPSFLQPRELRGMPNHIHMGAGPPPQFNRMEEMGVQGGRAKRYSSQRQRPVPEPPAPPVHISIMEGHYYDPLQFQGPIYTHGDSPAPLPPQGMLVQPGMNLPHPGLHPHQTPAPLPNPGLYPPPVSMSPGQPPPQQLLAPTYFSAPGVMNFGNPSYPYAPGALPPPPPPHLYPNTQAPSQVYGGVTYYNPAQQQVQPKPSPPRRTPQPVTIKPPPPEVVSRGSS"}, "SUPT16H (human)": {"target": "SUPT16H (human) (UniProt Q9Y5B9)", "sequence (Q9Y5B9 2-1047 limits assumed)": "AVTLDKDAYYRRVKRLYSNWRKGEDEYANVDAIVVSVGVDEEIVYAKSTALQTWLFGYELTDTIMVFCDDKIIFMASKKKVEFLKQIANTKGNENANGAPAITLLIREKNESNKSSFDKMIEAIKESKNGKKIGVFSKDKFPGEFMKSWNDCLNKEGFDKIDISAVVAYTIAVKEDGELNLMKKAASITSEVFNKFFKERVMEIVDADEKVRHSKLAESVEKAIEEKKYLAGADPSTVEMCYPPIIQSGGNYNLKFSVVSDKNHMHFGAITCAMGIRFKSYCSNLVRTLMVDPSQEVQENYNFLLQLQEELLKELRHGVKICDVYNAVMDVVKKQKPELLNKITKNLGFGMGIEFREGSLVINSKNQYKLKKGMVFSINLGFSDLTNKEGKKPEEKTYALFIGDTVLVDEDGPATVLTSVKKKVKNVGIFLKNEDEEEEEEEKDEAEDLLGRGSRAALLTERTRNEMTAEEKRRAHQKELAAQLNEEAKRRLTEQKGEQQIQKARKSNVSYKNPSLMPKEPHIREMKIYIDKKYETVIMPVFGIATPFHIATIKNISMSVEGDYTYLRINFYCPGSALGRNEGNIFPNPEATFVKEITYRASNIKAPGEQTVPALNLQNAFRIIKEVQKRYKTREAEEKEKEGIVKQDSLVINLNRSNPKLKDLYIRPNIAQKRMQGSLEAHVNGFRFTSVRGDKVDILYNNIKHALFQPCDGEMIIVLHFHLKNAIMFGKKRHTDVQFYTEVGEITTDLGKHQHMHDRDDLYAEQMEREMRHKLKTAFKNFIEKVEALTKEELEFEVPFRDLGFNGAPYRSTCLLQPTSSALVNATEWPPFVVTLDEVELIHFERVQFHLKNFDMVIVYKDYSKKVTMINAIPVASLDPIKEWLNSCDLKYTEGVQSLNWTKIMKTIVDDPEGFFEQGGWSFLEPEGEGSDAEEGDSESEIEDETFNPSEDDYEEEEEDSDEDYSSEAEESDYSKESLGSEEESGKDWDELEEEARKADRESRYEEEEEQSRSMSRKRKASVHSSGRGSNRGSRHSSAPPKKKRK"}, "ANXA2 (human)": {"target": "ANXA2 (human) (UniProt P07355)", "sequence (P07355 other isoform, or with tags, fused parts or gaps limits assumed)": "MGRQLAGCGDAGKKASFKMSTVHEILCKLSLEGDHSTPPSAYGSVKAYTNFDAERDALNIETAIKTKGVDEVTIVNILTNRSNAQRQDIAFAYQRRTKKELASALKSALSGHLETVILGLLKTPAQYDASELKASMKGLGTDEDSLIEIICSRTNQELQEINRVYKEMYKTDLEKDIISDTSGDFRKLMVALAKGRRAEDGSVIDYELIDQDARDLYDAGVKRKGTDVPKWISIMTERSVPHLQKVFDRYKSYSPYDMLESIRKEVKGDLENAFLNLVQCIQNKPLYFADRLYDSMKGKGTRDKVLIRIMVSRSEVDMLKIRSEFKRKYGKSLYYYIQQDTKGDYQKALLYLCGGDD"}, "TFAM (human)": {"target": "TFAM (human) (UniProt Q00059)", "sequence (Q00059 43-246 limits assumed)": "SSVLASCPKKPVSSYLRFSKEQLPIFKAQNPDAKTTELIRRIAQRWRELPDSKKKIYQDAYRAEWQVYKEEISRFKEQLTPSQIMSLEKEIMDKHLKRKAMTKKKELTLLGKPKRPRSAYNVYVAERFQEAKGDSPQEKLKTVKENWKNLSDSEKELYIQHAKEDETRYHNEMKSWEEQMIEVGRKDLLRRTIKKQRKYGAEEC"}, "SRP14 (human)": {"target": "SRP14 (human) (UniProt P37108)", "sequence (P37108 2-136 limits assumed)": "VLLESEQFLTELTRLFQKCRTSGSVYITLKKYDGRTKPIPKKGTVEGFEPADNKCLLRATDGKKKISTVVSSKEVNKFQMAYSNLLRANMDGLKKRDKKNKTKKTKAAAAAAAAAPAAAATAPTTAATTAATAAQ"}, "PABPC1 (human)": {"target": "PABPC1 (human) (UniProt P11940)", "sequence (P11940 whole entry)": "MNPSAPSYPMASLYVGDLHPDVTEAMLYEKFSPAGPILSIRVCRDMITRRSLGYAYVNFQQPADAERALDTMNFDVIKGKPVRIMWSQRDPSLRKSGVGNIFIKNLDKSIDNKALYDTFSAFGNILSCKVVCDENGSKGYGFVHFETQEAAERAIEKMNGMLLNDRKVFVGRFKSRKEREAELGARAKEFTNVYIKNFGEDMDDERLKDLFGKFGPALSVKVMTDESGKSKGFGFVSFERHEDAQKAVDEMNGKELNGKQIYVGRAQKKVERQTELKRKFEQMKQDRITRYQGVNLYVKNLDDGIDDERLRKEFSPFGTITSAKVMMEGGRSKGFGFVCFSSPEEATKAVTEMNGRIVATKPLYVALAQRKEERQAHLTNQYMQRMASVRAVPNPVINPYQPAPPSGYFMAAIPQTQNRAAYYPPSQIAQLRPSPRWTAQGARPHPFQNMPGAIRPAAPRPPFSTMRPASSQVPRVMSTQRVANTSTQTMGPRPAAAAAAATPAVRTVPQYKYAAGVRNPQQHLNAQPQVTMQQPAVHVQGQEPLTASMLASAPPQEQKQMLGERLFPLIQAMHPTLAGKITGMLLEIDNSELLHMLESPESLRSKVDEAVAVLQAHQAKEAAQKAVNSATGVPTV"}}, "data": [{"substance": "IgG control (Millipore Sigma 12-371) (antibody)", "values": [{"measurement": "co-IP mass spectrometry count (N-term IgG)", "setting": "CASC3 (human)", "value": 0}, {"measurement": "co-IP mass spectrometry count (N-term IgG)", "setting": "SUPT16H (human)", "value": 0}, {"measurement": "co-IP mass spectrometry count (N-term IgG)", "setting": "ANXA2 (human)", "value": 15}, {"measurement": "co-IP mass spectrometry count (N-term IgG)", "setting": "TFAM (human)", "value": 0}, {"measurement": "co-IP mass spectrometry count (N-term IgG)", "setting": "SRP14 (human)", "value": 0}, {"measurement": "co-IP mass spectrometry count (N-term IgG)", "setting": "PABPC1 (human)", "value": 37}]}]}
